In US20090068109A1 (Janssen / Centocor, published 2009):

Experiments:
[1] = target: human MCP-1 (human) (UniProt P13500); experiment: cell-based or functional assay
[2] = target: human MCP-1 (human) (UniProt P13500); experiment: BioVeris (IGEN) solution equilibrium titration
[3] = target: human MCP-1 (human) (UniProt P13500); experiment: inhibition of 125I-MCP-1 binding to THP-1 cells (CCR2)
[4] = target: T1, human Eotaxin-2 (human, UniProt O00175 27-104, limits assumed); experiment: Biacore, captured IgG
T1 sequence (looked up): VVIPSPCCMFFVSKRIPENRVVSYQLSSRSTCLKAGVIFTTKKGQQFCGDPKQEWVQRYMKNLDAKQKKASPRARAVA
Procedure: (§1) Specificity of Optimized Antibodies in Biacore Antibody Capture Mode (CNTO). Specificity evaluation was performed with selected IgGs. In Biacore 100 nM human MCP-1, human MCP-2, 3, 4 and human Eotaxin 1, 2 and 3 were added to captured optimized antibodies.

[5] = target: T2, human MCP-3 (human, UniProt P80098 24-99); experiment: Biacore, captured IgG
T2 construct: also called CCL7
T2 sequence (P80098 24-99 limits assumed): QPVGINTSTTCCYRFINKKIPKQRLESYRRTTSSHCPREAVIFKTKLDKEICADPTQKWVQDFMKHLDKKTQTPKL
Procedure: as §1

[6] = target: T3, human Eotaxin-3 (human, UniProt Q9Y258 24-94); experiment: Biacore, captured IgG
T3 sequence (looked up): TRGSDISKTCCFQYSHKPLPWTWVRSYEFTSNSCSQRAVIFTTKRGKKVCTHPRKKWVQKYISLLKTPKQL
Procedure: as §1

[7] = target: T4, human MCP-4 (human, UniProt Q99616 24-98); experiment: Biacore, captured IgG
T4 construct: also called CCL13
T4 sequence (Q99616 24-98 limits assumed): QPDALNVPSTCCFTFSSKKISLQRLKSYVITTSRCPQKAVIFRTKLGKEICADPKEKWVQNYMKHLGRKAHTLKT
Procedure: as §1

[8] = target: T5, human MCP-2 (human, UniProt P80075 24-99); experiment: Biacore, captured IgG
T5 construct: also called CCL8
T5 sequence (looked up): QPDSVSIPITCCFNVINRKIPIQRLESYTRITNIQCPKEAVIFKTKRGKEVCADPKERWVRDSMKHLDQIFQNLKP
Procedure: as §1

[9] = target: T6, human Eotaxin (human, UniProt P51671 24-97); experiment: BioVeris solution equilibrium titration
T6 construct: also called Eotaxin-1; Eotaxin 1
T6 sequence (P51671 24-97 limits assumed): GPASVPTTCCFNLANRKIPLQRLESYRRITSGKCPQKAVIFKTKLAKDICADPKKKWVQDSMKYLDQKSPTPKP
Procedure: Solution Equilibrium Titration (SET) Method for KD Determination and Cross-Reactivity Studies Using BioVeris. Affinity determination in solution was basically performed as described in the literature (Friguet et al., 1985). In order to improve the sensitivity and accuracy of the SET method, it was transferred from classical ELISA to ECL based BioVeris technology (Haenel et al., 2005, accepted for publication in Analytical Biochemistry). 1 mg/ml goat-anti-human (Fab)₂ or goat-anti-mouse IgG, Fc fragment specific antibodies (Jackson Immuno Research) were labelled with BV-tag™ NHS-Ester (Bioveris Europe, Witney, Oxfordshire, UK) according to manufacturer's instructions. The experiments were carried out in polypropylene microtiter plates and PBS pH 7.4 with 0.5% BSA and 0.02% Tween 20 as assay buffer. Unlabeled antigen was diluted in 4ⁿ series: For human and cyno MCP-1 a concentration range of 10 pM to 40 nM and for cross-reactivity controls (Eotaxin and MCP-2) a concentration range of 40 pM to 160 nM was chosen. Wells without antigen were used to determine Smax values. After addition of 100 pM Fab or IgG (final concentration in 75 μL final volume), the mixture was incubated for 2 hours at RT. Subsequently a mixture of 25 μl Dynabeads (0.4 mg/ml M-280 Streptavidin, DYNAL, Hamburg), coated with 0.25 μg/ml biotinylated MCP-1 (K69) and BV-tag labeled detection antibody in a final dilution of 1:4000 for anti-human Fab or 1:2000 for anti-mouse IgG were added per well. After incubation for 30 min on an Eppendorf shaker (700 rpm) at RT, electrochemiluminescence signals were detected using a M-384 SERIES® Workstation (Bioveris Europe) Data were evaluated with Origin 5.0 (Microcal) software applying customized fitting models (for Fab: Haenel et al., 2005, accepted for publication in Analytical Biochemistry; for IgG: according to Piehler et al., 1997).
Specificity Testing Using BioVeris. Beside the affinity also the specificity, especially the cross-reactivity to Eotaxin and MCP-2, was analyzed in solution equilibrium titration (SET) using BioVeris. No cross-reactivity to human MCP-2 was detectable for any of the selected 16 Fabs and 15 IgGs tested (one of the 16 selected IgGs was not available). As human MCP-1, human MCP-2 binds mainly to the CCR2 receptor, while human Eotaxin predominantly binds to the CCR3 receptor.

[10] = target: T7, human MCP-1 (human, UniProt P13500 24-99); experiment: inhibition of 125I-MCP-1 binding to THP-1 cells (CCR2)
T7 construct: mature; also called hMCP-1; CCL2
T7 sequence (P13500 24-99): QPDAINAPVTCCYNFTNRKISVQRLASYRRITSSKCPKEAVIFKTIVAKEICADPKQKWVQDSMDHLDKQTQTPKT

[11] = target: T7, human MCP-1; experiment: Biacore, Fab
[12] = target: T8, cynomolgus monkey MCP-1 (cynomolgus monkey, UniProt P61274 24-99); experiment: Biacore, Fab
T8 construct: also called cyno MCP-1; cyno CCL-2
T8 sequence (P61274 24-99 limits assumed): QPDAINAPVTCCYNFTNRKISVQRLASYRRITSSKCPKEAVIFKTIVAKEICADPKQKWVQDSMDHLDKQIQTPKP

[13] = target: T5, human MCP-2; experiment: Biacore, captured Fab
Procedure: For the specificity analysis of Fabs, surface plasmone resonance was used (Biacore 3000, Uppsala, Sweden) using the capture assay was used. Fabs were captured and the various proteins (MCP-2, -3, -4 and Eotaxin-1, -2 and -3) were used as analytes. CM5 chips (Biacore, Sweden) were coated with 6500-8000 RU anti-F(ab)₂ (Dianova, Affipure F(ab)₂ fragment goat anti-human IgG, F(ab)₂ fragment specific; 10 mM acetate buffer, pH 4.5) on all 4 flow cells, using standard EDC-NHS amine coupling chemistry. The flow cells 2-4 were captured with specific anti-MCP-1 Fabs (20 μl of 500 nM Fab at a flow rate of […], resulted capture density 300-400RU). After capturing of Fabs, the chemokines were injected (20 μl, flow rate 20 μl/min, PBS pH 7.4) at a concentration of 100 nM. Chemokines were stored in small aliquots and only freshly thawed material with maximum 1 freeze thaw cycle was used for the measurements. To avoid a combination of off rates aroused by the off rate of MCP-1, Fab specific interaction and the anti-Fab/Fab interaction, buffer was injected, to determine the dissociation of anti-Fab/Fab interaction. The achieved buffer sensorgram was subtracted from the specific one. The response units were normalized to the amount of capture antibody onto the surface.

[14] = target: T7, human MCP-1; experiment: cell-based or functional assay

Chain of human MCP-1 (human) (P13500 24-99): as the sequence (P13500 24-99) above

B1: C775 Fab (Fab, from another filing, V domains shown)
VH: QVQLKQSGAELVRPGASVKLSCKASGYTFTDYYINWVKQRPGQGLEWIARIYPGTGNTYYNENFKGKATLTAEKSSSTAYMQLSSLTSEDSAVYFCARSGSTVVGNYYGMDYWGQGTSVTVSS
VL: SIVMTQTPKFLLVSAGDRVSITCKASQSVSNDVAWYQQKPGQSPKLLIYYASNRYTGVPDRFTGSGYGTDFTFTISTVQAEDLAVYFCQQDYSSPWTFGGGTKLEIKR
**Q.** For B1, which Inhibition of Ca2+ Mobilization IC50 [1] is on record?
**A.** 71.5 nM

**Q.** And the Kd [2]?
**A.** 65 nM

**Q.** And the IC50 [3]?
**A.** 35.6 nM

B2: C775 IgG (antibody, from another filing, V domains shown)
VH: QVQLKQSGAELVRPGASVKLSCKASGYTFTDYYINWVKQRPGQGLEWIARIYPGTGNTYYNENFKGKATLTAEKSSSTAYMQLSSLTSEDSAVYFCARSGSTVVGNYYGMDYWGQGTSVTVSS
VL: SIVMTQTPKFLLVSAGDRVSITCKASQSVSNDVAWYQQKPGQSPKLLIYYASNRYTGVPDRFTGSGYGTDFTFTISTVQAEDLAVYFCQQDYSSPWTFGGGTKLEIKR
**Q.** B2 was tested. Which Inhibition of Ca2+ Mobilization IC50 [1] did it give?
**A.** 62.3 nM

**Q.** What about the IC50 [3] of the same binder?
**A.** 25.6 nM

B3: MOR03747 IgG1 (antibody, V domains shown)
VH: QVQLVESGGGLVQPGGSLRLSCAASGFTFRSYGMSWVRQAPGKGLEWVSNIRSDGSYTYYADSVKGRFTISRDNSKNTLYLQMNSLRAEDTAVYYCARFEFTPWTYFDFWGQGTLVTVSS
VL: DIELTQPPSVSVAPGQTARISCSGDNLGKKYVYWYQQKPGQAPVLVIYDDDNRPSGIPERFSGSNSGNTATLTISGTQAEDEADYYCQSYDRFSSTGFGGGTKLTVL
notes: Human IgG1 lambda
**Q.** Which results are given for B3?
**A.** binding result [4]: no binding (tested: 100 nM); binding result [5]: no binding (tested: 100 nM); binding result [6]: no binding (tested: 100 nM); binding result [7]: no binding (tested: 100 nM); binding result [8]: no binding (tested: 100 nM); binding result [9]: no binding (tested: 40 pM to 160 nM)

B4: MOR03747 Fab (Fab, V domains shown)
VH: QVQLVESGGGLVQPGGSLRLSCAASGFTFRSYGMSWVRQAPGKGLEWVSNIRSDGSYTYYADSVKGRFTISRDNSKNTLYLQMNSLRAEDTAVYYCARFEFTPWTYFDFWGQGTLVTVSS
VL: DIELTQPPSVSVAPGQTARISCSGDNLGKKYVYWYQQKPGQAPVLVIYDDDNRPSGIPERFSGSNSGNTATLTISGTQAEDEADYYCQSYDRFSSTGFGGGTKLTVL
notes: HuCAL Fab with C-terminal FLAG and 6xHis tags
**Q.** Does B4 bind [9]?
**A.** no binding (tested: 40 pM to 160 nM)

B5: MOR03548 Fab (Fab, V domains shown)
VH: QVQLVESGGGLVQPGGSLRLSCAASGFTFRSYGMSWVRQAPGKGLEWVSNIRSDGSYTYYADSVKGRFTISRDNSKNTLYLQMNSLRAEDTAVYYCARFEFTPWTYFDFWGQGTLVTVSS
VL: DIELTQPPSVSVAPGQTARISCSGDNLGKKYVYWYQQKPGQAPVLVIYDDDNRPSGIPERFSGSNSGNTATLTISGTQAEDEADYYCQSYTAQSSASFGGGTKLTVL
notes: Parental HuCAL GOLD Fab with C-terminal FLAG and 6xHis tags
**Q.** With B5 as the binder, how does the IC50 [10] read?
**A.** 11 nM

**Q.** And the Kd [11]?
**A.** 42 nM

**Q.** What about the Kd [12] of the same binder?
**A.** 54 nM

**Q.** Does B5 bind [13]?
**A.** no binding (tested: 100 nM)

**Q.** What about the “Ca2+ mobilization IC50” value [14] of the same binder?
**A.** 124 nM

B6: MOR03744 IgG1 (antibody, V domains shown)
VH: QVQLVESGGGLVQPGGSLRLSCAASGFTFRSYGMSWVRQAPGKGLEWVSNIRSDGSYTYYADSVKGRFTISRDNSKNTLYLQMNSLRAEDTAVYYCARFEFTPWTYFDFWGQGTLVTVSS
VL: DIELTQPPSVSVAPGQTARISCSGDNLGKKYVYWYQQKPGQAPVLVIYDDDNRPSGIPERFSGSNSGNTATLTISGTQAEDEADYYCQTYDRFSSTAFGGGTKLTVL
notes: Human IgG1 lambda
**Q.** Does B6 bind [4]?
**A.** no binding (tested: 100 nM)

**Q.** Does B6 bind [5]?
**A.** no binding (tested: 100 nM)

**Q.** Does B6 bind [6]?
**A.** no binding (tested: 100 nM)

**Q.** Does B6 bind [7]?
**A.** no binding (tested: 100 nM)

**Q.** Does B6 bind [8]?
**A.** no binding (tested: 100 nM)

**Q.** Does B6 bind [9]?
**A.** no binding (tested: 40 pM to 160 nM)

B7: MOR03744 Fab (Fab, V domains shown)
VH: QVQLVESGGGLVQPGGSLRLSCAASGFTFRSYGMSWVRQAPGKGLEWVSNIRSDGSYTYYADSVKGRFTISRDNSKNTLYLQMNSLRAEDTAVYYCARFEFTPWTYFDFWGQGTLVTVSS
VL: DIELTQPPSVSVAPGQTARISCSGDNLGKKYVYWYQQKPGQAPVLVIYDDDNRPSGIPERFSGSNSGNTATLTISGTQAEDEADYYCQTYDRFSSTAFGGGTKLTVL
notes: as for B4
**Q.** Does B7 bind [9]?
**A.** no binding (tested: 40 pM to 160 nM)
